This note sets out measurements from the Human Domainome abundance scans (Beltran et al. 2025).

First the molecules themselves.
B1: Homeobox protein cut-like 1, residues 941 to 1008; numbered along this chain, P39880 (parent)
chain: QEVDTIELTRQVKEKLAKNGICQRIFGEKVLGLSQGSVSDMLSRPKPWSKLTQKGREPFIRMQLWLNG
B2: Connector enhancer of kinase suppressor of ras 2, residues 9 to 71; numbered along this chain, Q8WXI2 (parent)
chain: SKWSPSQVVDWMKGLDDCLQQYIKNFEREKISGDQLLRITHQELEDLGVSRIGHQELILEAVD

± gives the uncertainty stated by the source.

Variants of B1 are the subject of the first data set. Nature of the data set: abundance fitness (aPCA) (normalised: wild type 0, dead -1); higher = more abundant; growth selection in yeast, the domain comes from the species named. The conditions noted are these: Homo sapiens.
In the case of Q1L, the abundance fitness was -0.218 ± 0.055.
On the same count and under the same terms, the figure for Q1K is 0.076 ± 0.065; for Q1H it is -0.673 ± 0.14; for Q1M it is 0.09 ± 0.081.
Same read-out and setting: the figure for Q1N is -0.412 ± 0.11; for V3R it is -0.051 ± 0.061.
Same read-out and setting: the figure for V3Q is -0.032 ± 0.076; for V3S it is -0.067 ± 0.058.
In the case of V3A, the abundance fitness was -0.133 ± 0.061.
On the same count and under the same terms, the figure for V3H is -0.199 ± 0.12; for V3F it is -0.063 ± 0.073; for V3G it is -0.154 ± 0.058.
Still for that read-out and setting: the figure for V3C is -0.486 ± 0.17.
On the same count and under the same terms, the figure for V3N is -0.335 ± 0.1; for V3Y it is -0.227 ± 0.12.
Turning to V3K, the abundance fitness is -0.136 ± 0.098.
The same measure, in the same setting: the figure for V3D is -0.174 ± 0.094; for V3P it is -0.111 ± 0.07; for V3T it is -0.112 ± 0.085.
Turning to V3M, the abundance fitness is -0.045 ± 0.074.
On to V3I, for which the abundance fitness stood at 0.19 ± 0.091.
Still for that read-out and setting: the figure for V3W is -0.528 ± 0.085; for V3E it is -0.037 ± 0.093.
As for V3L, the abundance fitness came to 0.008 ± 0.052.

The variants in another data set derive from B2. The description is as above. The conditions noted are these: Homo sapiens.
On to E29Y, for which the abundance fitness was -0.102 ± 0.046.
Consider V49H, for which the abundance fitness was -0.926 ± 0.079.
On the same count and under the same terms, the figure for V49E is -0.903 ± 0.054; for V49I it is -0.088 ± 0.049; for L57M it is 0.035 ± 0.04.
On the same count and under the same terms, the figure for L57P is -0.831 ± 0.057; for L57R it is -0.202 ± 0.027; for L57W it is -0.987 ± 0.066.
Still for that read-out and setting: the figure for L57C is -0.394 ± 0.051; for G14M it is -0.421 ± 0.043.
Turning to G14H, the abundance fitness was -0.468 ± 0.1.
The same measure, in the same setting: the figure for G14C is -0.34 ± 0.036; for G14E it is -0.225 ± 0.034; for W3H it is -0.772 ± 0.13.
In the case of D16A, the abundance fitness is -0.408 ± 0.034.
With S50D, the abundance fitness was -0.172 ± 0.1.
Still for that read-out and setting: the figure for S50E is 0.024 ± 0.12; for S50Y it is -0.05 ± 0.17; for S50L it is -0.072 ± 0.033.
On the same count and under the same terms, the figure for Y22Q is -0.636 ± 0.062; for Y22K it is -0.578 ± 0.091.
The same measure, in the same setting: the figure for S6G is -0.052 ± 0.027; for E43V it is -0.257 ± 0.036; for E43H it is -0.179 ± 0.049.
Regarding E43A, the abundance fitness was -0.143 ± 0.03.
Same read-out and setting: the figure for E43T is -0.151 ± 0.026.
Take D46T: the abundance fitness was -0.041 ± 0.031.
Still for that read-out and setting: the figure for E45D is -0.167 ± 0.056; for E45S it is -0.017 ± 0.02; for Q55V it is -0.319 ± 0.029.
On the same count and under the same terms, the figure for Q55Y is -1.02 ± 0.16; for Q55D it is -0.978 ± 0.093; for Q55N it is -1.01 ± 0.091.
Same read-out and setting: the figure for L59Y is -0.61 ± 0.055; for L59F it is -0.358 ± 0.056; for L59G it is -0.674 ± 0.032.
As to L59N, the abundance fitness was -0.741 ± 0.074.
The same measure, in the same setting: the figure for L19H is -0.568 ± 0.061; for L19G it is -0.68 ± 0.027; for S1N it is 0.063 ± 0.053.
With S1E, the abundance fitness is -0.283 ± 0.31.
Same read-out and setting: the figure for S1T is -0.198 ± 0.04; for R28Y it is -0.28 ± 0.069; for R28G it is -0.262 ± 0.031.
The same measure, in the same setting: the figure for L44N is -0.87 ± 0.091; for L44Q it is -0.932 ± 0.12.
Still for that read-out and setting: the figure for L44P is -0.821 ± 0.073; for D10M it is -0.169 ± 0.031.
Consider D10R, for which the abundance fitness was -0.176 ± 0.031.
The same measure, in the same setting: the figure for D10L is -0.256 ± 0.017; for D10S it is -0.127 ± 0.034; for H41S it is -0.007 ± 0.027.
For the variant H41I, the abundance fitness is -0.184 ± 0.051.
Still for that read-out and setting: the figure for H41E is -0.076 ± 0.035; for I52H it is -0.047 ± 0.06.
The same measure, in the same setting: the figure for I52G is -0.074 ± 0.025; for L37S it is -0.072 ± 0.027.
Still for that read-out and setting: the figure for L37Q is -0.151 ± 0.038.
Take L37M: the abundance fitness stood at 0.012 ± 0.049.
Still for that read-out and setting: the figure for D34V is -0.159 ± 0.029; for D34R it is -0.075 ± 0.021; for Q7E it is -0.006 ± 0.033.
On the same count and under the same terms, the figure for T40G is -0.12 ± 0.027; for T40N it is -0.201 ± 0.052.
Turning to T40K, the abundance fitness is -0.186 ± 0.042.
Same read-out and setting: the figure for T40H is -0.6 ± 0.076; for T40Q it is -0.437 ± 0.038; for R51V it is 0.061 ± 0.029.
On the same count and under the same terms, the figure for R51D is 0.081 ± 0.043; for R51L it is -0.015 ± 0.026.
On the same count and under the same terms, the figure for K2A is -0.239 ± 0.043; for Q35K it is -0.054 ± 0.057; for Q35R it is 0.033 ± 0.03.
As to Q35N, the abundance fitness was -0.119 ± 0.12.
On the same count and under the same terms, the figure for G53N is 0.084 ± 0.081.
On the same count and under the same terms, the figure for D63R is 0.108 ± 0.046; for D63W it is -0.311 ± 0.12.
Same read-out and setting: the figure for D63I is -0.274 ± 0.063.
As for D63F, the abundance fitness was -0.233 ± 0.057.
On the same count and under the same terms, the figure for D63T is -0.055 ± 0.057; for S4N it is 0.001 ± 0.042.
The same measure, in the same setting: the figure for I39M is 0.009 ± 0.034.
Still for that read-out and setting: the figure for I39V is -0.22 ± 0.03; for I39R it is -0.717 ± 0.03; for F26V it is -0.485 ± 0.027.
Turning to F26Q, the abundance fitness is -0.772 ± 0.05.
Turning to F26S, the abundance fitness is -0.779 ± 0.025.
Same read-out and setting: the figure for F26H is -0.929 ± 0.081; for E60W it is -0.664 ± 0.04.
Still for that read-out and setting: the figure for E60Y is -0.514 ± 0.047.
The same measure, in the same setting: the figure for L15R is -0.535 ± 0.037; for D17V it is -0.359 ± 0.028.
With D17Y, the abundance fitness is -0.203 ± 0.054.
On the same count and under the same terms, the figure for R38M is -0.307 ± 0.05; for E56M it is -0.157 ± 0.042.
Consider E56R, for which the abundance fitness is -0.009 ± 0.027.
The same measure, in the same setting: the figure for E56H is -0.121 ± 0.051; for Q21F it is -0.539 ± 0.041.
On the same count and under the same terms, the figure for Q42S is -0.128 ± 0.021; for Q42F it is -0.618 ± 0.077.
Same read-out and setting: the figure for Q42R is -0.03 ± 0.024; for Q42A it is -0.083 ± 0.017; for Q42P it is -0.254 ± 0.035.
Regarding Q42M, the abundance fitness was -0.319 ± 0.05.
Still for that read-out and setting: the figure for Q42C is -0.395 ± 0.042.
Still for that read-out and setting: the figure for L36P is -0.928 ± 0.069; for L36V it is -0.713 ± 0.044.
For the variant L36S, the abundance fitness was -0.846 ± 0.04.
The same measure, in the same setting: the figure for W11F is -0.333 ± 0.048; for W11H it is -0.738 ± 0.049.
Turning to W11V, the abundance fitness was -0.749 ± 0.038.
Same read-out and setting: the figure for W11L is -0.896 ± 0.041.
Still for that read-out and setting: the figure for I23H is -0.393 ± 0.082; for I23N it is -0.475 ± 0.044; for H54F it is -0.886 ± 0.1.
Still for that read-out and setting: the figure for H54N is -0.65 ± 0.036; for N25P it is -0.307 ± 0.033; for K30V it is -0.519 ± 0.031.
Take K30H: the abundance fitness was -0.04 ± 0.043.
Still for that read-out and setting: the figure for Q20E is -0.31 ± 0.043; for Q20L it is -0.121 ± 0.023.
On to Q20Y, for which the abundance fitness was -0.204 ± 0.042.
On the same count and under the same terms, the figure for Q20W is -0.133 ± 0.031; for Q20G it is -0.152 ± 0.023.
Same read-out and setting: the figure for G48T is -0.865 ± 0.08; for L47C it is -0.592 ± 0.083.
The same measure, in the same setting: the figure for L47R is -0.688 ± 0.038; for L47W it is -0.622 ± 0.047; for C18Y it is -0.877 ± 0.061.
On to C18L, for which the abundance fitness was -0.885 ± 0.049.
Still for that read-out and setting: the figure for C18V is -0.118 ± 0.024.
The same measure, in the same setting: the figure for V9A is -0.064 ± 0.028.
The same measure, in the same setting: the figure for M12N is -1 ± 0.087.
Consider M12G, for which the abundance fitness was -0.757 ± 0.037.
The same measure, in the same setting: the figure for M12D is -0.706 ± 0.05.
On the same count and under the same terms, the figure for M12I is -0.165 ± 0.031.
Same read-out and setting: the figure for M12L is -0.188 ± 0.028; for I31Q it is -0.87 ± 0.082; for I31L it is -0.26 ± 0.03.
Regarding I31N, the abundance fitness was -0.732 ± 0.07.
On the same count and under the same terms, the figure for V8H is -0.878 ± 0.052.
Still for that read-out and setting: the figure for V8K is -0.88 ± 0.064.
The same measure, in the same setting: the figure for G33V is -0.417 ± 0.041.
